The record followed here is patent US20160215040A1 (Regeneron, published 2016).

Where only a bound is given, the exact number is not on record here.

Assay [1] deals with T1, Ebola virus GP with a C-terminal polyhistidine tag (Sino Biologicals, Catalog #40442-V08B1) (Ebola virus, UniProt P87666 33-650).
T1 construct: also called EbolaGP.his; Ebola virus GP.his
The assay can be described thus: SPR 37C, mAb captured.

Assay [2] concerns the target T2, hCNTFR.mmh (ciliary neurotrophic factor receptor.mmh) (human (printed as hCNTFR), UniProt P26992 23-342).
T2 construct: also called negative control protein; not shown: mmh (myc-myc-hexahistidine) tag
T2 sequence: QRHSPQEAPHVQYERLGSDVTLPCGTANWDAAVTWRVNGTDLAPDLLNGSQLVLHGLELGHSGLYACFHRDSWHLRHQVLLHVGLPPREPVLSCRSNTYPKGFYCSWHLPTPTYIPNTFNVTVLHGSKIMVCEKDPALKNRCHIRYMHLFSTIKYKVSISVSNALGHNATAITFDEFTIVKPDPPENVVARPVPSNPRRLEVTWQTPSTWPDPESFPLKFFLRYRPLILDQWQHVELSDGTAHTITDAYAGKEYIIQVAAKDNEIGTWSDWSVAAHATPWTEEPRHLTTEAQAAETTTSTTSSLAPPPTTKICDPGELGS
The assay is described as follows: BLI, mAb captured, 25C.

Assay [3] deals with T1, Ebola virus GP with a C-terminal …. The assay is described as follows: SPR 37C, mAb captured, pH chase.
Assay [4] shares this target. The assay can be described thus: SPR 25C, mAb captured.
For assay [5], the target named is T3, Ebola virus GP, Cote d'Ivoire strain, on VLPs (Ebola virus, Cote d'Ivoire strain, UniProt Q66810 33-676).
T3 construct: also called Cote d'Ivoire FJ217162; Ivory Coast
T3 sequence: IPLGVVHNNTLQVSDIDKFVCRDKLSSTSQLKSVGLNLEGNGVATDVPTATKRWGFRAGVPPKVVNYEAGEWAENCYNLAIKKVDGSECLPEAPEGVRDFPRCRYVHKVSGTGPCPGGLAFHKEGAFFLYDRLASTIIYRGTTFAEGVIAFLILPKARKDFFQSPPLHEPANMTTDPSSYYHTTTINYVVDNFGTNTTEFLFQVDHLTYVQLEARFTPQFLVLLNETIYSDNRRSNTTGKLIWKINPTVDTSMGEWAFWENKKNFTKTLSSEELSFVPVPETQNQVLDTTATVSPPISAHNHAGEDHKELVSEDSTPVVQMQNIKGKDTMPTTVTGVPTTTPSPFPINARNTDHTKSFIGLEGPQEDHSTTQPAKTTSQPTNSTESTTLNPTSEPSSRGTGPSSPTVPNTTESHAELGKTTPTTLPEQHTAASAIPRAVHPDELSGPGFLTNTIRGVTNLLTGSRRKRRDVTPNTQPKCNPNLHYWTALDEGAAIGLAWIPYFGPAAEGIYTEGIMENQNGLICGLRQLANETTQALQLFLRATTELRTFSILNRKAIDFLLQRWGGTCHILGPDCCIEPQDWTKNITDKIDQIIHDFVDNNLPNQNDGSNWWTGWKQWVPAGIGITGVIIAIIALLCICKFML
The assay is described as follows: MSD, VLPs coated.

The target in assay [6] is T4, Ebola virus GP, Sudan strain, on VLPs (Ebola virus, Sudan strain, UniProt Q7T9D9 33-676).
T4 construct: also called Sudan NC_006432
T4 sequence: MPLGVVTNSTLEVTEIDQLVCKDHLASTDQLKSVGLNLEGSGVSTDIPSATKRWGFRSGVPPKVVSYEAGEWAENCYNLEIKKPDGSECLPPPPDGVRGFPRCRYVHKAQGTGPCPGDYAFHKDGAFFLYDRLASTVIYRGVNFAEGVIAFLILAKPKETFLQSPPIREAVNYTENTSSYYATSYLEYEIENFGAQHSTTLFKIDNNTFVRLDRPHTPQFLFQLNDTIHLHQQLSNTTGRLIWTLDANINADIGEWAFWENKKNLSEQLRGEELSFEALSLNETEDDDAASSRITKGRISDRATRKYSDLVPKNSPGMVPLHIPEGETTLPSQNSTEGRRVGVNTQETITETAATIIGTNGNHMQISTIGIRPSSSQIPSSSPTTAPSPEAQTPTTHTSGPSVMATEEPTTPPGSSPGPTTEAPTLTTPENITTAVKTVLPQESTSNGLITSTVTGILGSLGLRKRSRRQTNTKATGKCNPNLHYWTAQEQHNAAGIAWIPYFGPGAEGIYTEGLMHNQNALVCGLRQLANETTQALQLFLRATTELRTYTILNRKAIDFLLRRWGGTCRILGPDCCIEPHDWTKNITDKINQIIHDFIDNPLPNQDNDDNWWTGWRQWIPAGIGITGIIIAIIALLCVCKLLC
The assay is described as follows: MSD, VLPs coated.

B1: H1H17162P (antibody, V domains shown)
VH: EVQLVESGGGLVQPGGSLRLSCAASEFTFSSYAMSWVRQAPGKGLEWVSAISGSSGSTYYADSVKGRFTISRDNSKKTLYLQMNSLRVEDTAVYYCAKGGYPHSFDIWGHGTMVTVSS
VL: DIQMTQSPSSLSASVGDRVTITCRASQSISSFLNWYQQKPGKAPKLLIYAASSLQSGVPSRFSGSGSGTDFTLTISSLQPEDFATYYCQQSYSSITFGQGTRLEIK
Regarding B1, in assay [1], the dissociation constant (Kd) (commonly the free concentration of one partner at which half of the binding sites on the other are occupied at equilibrium, for simple one-to-one binding) was 0.288 nM; the koff (commonly the first-order rate constant of dissociation) was at most 1e-05 s⁻¹; the on-rate constant (kon) (in general, a measure of how fast the partners come together) was 34700 M⁻¹ s⁻¹; the t½ (commonly the time needed for the level to fall by half in the phase considered) was at least 19.2 h. The binding result in assay [2] is on record as “no binding (tested: below 0.10 nm at 300 nM)”. In assay [3], the “t½ ratio pH 7.4/pH 5.0” value came to 0.3 and the “t½ ratio pH 7.4/pH 6.0” value came to 0.3. In assay [4], this molecule showed a Kd of at most 0.46 nM, an off-rate (koff) of at most 1e-05 s⁻¹, a kon of 21800 M⁻¹ s⁻¹ and a t½ of at least 19.2 h. Moreover, the binding result in assay [5] is given as “no binding”.

B2: H1H17161P (antibody, V domains shown)
VH: EVQLVESGGGLVQPGGSLRLSCAASGFTSSSYAMNWVRQAPGKGLEWVSTISGMGGSTYYADSVKGRFTISRDNSKNTLYLQMNSLRAEDTAVYYCAKRGYPHSFDIWGQGTMVTVSS
VL: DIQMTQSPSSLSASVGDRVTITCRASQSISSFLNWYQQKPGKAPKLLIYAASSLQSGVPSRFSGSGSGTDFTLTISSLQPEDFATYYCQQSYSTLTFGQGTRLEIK
notes: also called REGN H1H17161P
For the molecule B2, in assay [1], binding was characterised by a dissociation constant (Kd) of 0.228 nM, the koff is at most 1e-05 s⁻¹, the kon is 43900 M⁻¹ s⁻¹ and the t½ was at least 19.2 h. In assay [3], the “t½ ratio pH 7.4/pH 5.0” value was 0.2 and the “t½ ratio pH 7.4/pH 6.0” value worked out at 0.2. In assay [4], this molecule displayed an equilibrium dissociation constant (Kd) of at most 0.189 nM, a koff of at most 1e-05 s⁻¹, a kon of 52900 M⁻¹ s⁻¹ and a t½ of at least 19.2 h. Moreover, the binding result in assay [5] is “no binding”.

B3: H2aM17356N (antibody, V domains shown)
VH: EVQLVESGGGLVQPGGSLRLSCAASGFTFSSYEMNWVRQAPGKGLEWVSYIGSSGRATYYADSVKGRFTISRDNAKNSLYLQMNSLRAEDTAVYYCARPSSIAALLRNQYHFGMDVWGQGTTVTVSS
VL: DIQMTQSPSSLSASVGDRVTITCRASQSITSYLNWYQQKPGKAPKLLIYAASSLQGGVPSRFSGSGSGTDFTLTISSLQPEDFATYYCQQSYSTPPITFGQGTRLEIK
notes: also called HCAF08C07-09
In assay [1], B3 came in with a dissociation constant Kd of 34.4 nM, a koff of 0.00025 s⁻¹, a kon of 7260 M⁻¹ s⁻¹ and a t½ of 0.77 h. Also, in assay [3], the “t½ ratio pH 7.4/pH 5.0” value was 0.9 and the “t½ ratio pH 7.4/pH 6.0” value was found to be 0.9. For the same molecule, in assay [4], the equilibrium dissociation constant (Kd) worked out at 4.4 nM, the koff worked out at 9.57e-05 s⁻¹, the association rate constant (kon) stood at 21800 M⁻¹ s⁻¹ and the t½ stood at 2.01 h. Besides, the binding result in assay [6] is listed as “no binding”.

B4: H1H17360N (antibody, V domains shown)
VH: EVQLVESGGGLVQPGGSLRLSCAASGFTFSSYEMNWVRQAPGKGLEWVSYISSSGSTKYYADSVKGRFTISRDNAKNSLYLQMNSLRAEDTAVYYCARPSSIPALLRNQYHYGMDVWGQGTTVTVSS
VL: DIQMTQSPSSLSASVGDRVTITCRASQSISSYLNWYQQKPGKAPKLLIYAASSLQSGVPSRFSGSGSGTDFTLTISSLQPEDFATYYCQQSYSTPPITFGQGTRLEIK
Take B4: the figures for the binding result in assay [2], in assay [5] and in assay [6] were “no binding (tested: below 0.10 nm at 300 nM)”, “no binding” and “no binding”, respectively.

B5: H1H17356N (antibody, V domains shown)
VH: EVQLVESGGGLVQPGGSLRLSCAASGFTFSSYEMNWVRQAPGKGLEWVSYIGSSGRATYYADSVKGRFTISRDNAKNSLYLQMNSLRAEDTAVYYCARPSSIAALLRNQYHFGMDVWGQGTTVTVSS
VL: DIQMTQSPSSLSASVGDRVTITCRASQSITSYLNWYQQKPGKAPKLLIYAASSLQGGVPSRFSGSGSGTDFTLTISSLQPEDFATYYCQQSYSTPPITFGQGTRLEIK
With B5, the binding result in assay [2] is on record as “no binding (tested: below 0.10 nm at 300 nM)”.

B6: H1H17134P (antibody, V domains shown)
VH: QLQLQESGPGLVKPSETLSLTCTVSGGSISSSSYYWGWIRQPPGKGLEWIGSIYYDGDTYYNPSLKSRVTISVDTSKNQFSLRLSSVTAADTAVYYCARQFDYWGQGTLVTVSS
VL: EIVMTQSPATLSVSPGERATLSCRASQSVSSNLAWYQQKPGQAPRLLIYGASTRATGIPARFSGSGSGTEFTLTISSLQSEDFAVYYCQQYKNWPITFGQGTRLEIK
In assay [1], B6 registered a Kd of 6.7 nM, a koff of 0.000469 s⁻¹, a kon of 69900 M⁻¹ s⁻¹ and a t½ of 0.41 h. In assay [3], the “t½ ratio pH 7.4/pH 5.0” value stood at 0.6 and the “t½ ratio pH 7.4/pH 6.0” value was 0.6. In assay [4], this molecule yielded a Kd of 12.3 nM, a koff of 0.000941 s⁻¹, a kon of 76500 M⁻¹ s⁻¹ and a t½ of 0.205 h. The binding result in assay [5] was “no binding”. The binding result in assay [6] is recorded as “no binding”.

B7: H1H17142P (antibody, V domains shown)
VH: EVQLVESGGGLVQPGGSLRLSCAASGFTFSSYAMTWVRQAPGKGLEWVSSISGSGTSTYYADSVKGRFTISRDNSKNTLYLQMNSLRAEDTALYYCSRDIYTWNFLSLIGGMDVWGQGTTVTVSS
VL: DIQMTQSPSSLSASVGDRVTITCRASQGIRIDLGWYQQKPGKAPNRLIYAASSLQGGVPSRFSGSGSGTEFTLTISSLQPEDFATYYCLQQNSYPWTFGQGTKVEIK
Take B7: in assay [1], the Kd was 6.68 nM, the off-rate (koff) turned out to be 0.000174 s⁻¹, the kon was 26000 M⁻¹ s⁻¹ and the t½ came to 1.11 h. Moreover, the binding result in assay [2] is “no binding (tested: below 0.10 nm at 300 nM)”. Besides, in assay [3], the “t½ ratio pH 7.4/pH 5.0” value amounted to 0.5 and the “t½ ratio pH 7.4/pH 6.0” value turned out to be 0.5. In assay [4], the Kd amounted to 1.41 nM, the dissociation rate constant (koff) was determined as 2.81e-05 s⁻¹, the on-rate (kon) turned out to be 20000 M⁻¹ s⁻¹ and the t½ was determined as 6.84 h. Besides, the binding result in assay [6] is on record as “no binding”.

B8: H1H17151P (antibody, V domains shown)
VH: EVQLVESGGGLVQPGGSLRLSCAASGFTFSSYAMNWVRQAPGKGLEWVSVISGSGGWRNYADSVKGRITISRDNSKNTLYLQMNNLRAEDTAVYYCAKDRGATFGVVILGPPYYGMDVWGQGTTVTVSS
VL: DIQMTQSPSSLSASVRDRVTITCRASQSISTYLNWYQQKPGKAPKLLIYAASSLQSGVPSRFSGSGSGTGFTLTISSLQPEDFATYYCQQSYSIPYTFGQGTKLEIK
Consider B8, for which, in assay [1], binding was characterised by a dissociation constant (Kd) of 17 nM, the koff is 0.000383 s⁻¹, the on-rate (kon) worked out at 22600 M⁻¹ s⁻¹ and the t½ is 0.503 h. For the same molecule, in assay [3], the “t½ ratio pH 7.4/pH 5.0” value came to 0.01 and the “t½ ratio pH 7.4/pH 6.0” value came out at 0.03. Also, in assay [4], binding was characterised by a dissociation constant (Kd) of 7.49 nM, the koff stood at 9.44e-05 s⁻¹, the association rate constant (kon) was found to be 12600 M⁻¹ s⁻¹ and the t½ turned out to be 2.04 h. For the same molecule, the binding result in assay [5] is “no binding”. Also, the binding result in assay [6] is “no binding”.

B9: H2aM17359N (antibody, V domains shown)
VH: EVQLVESGGGLAQPGGSLRLSCAASGFTFSSHEMNWVRQAPGKGLEWVSYISRSGRIINYADSVKGRFTISRDNAKNSLYLQMNSLRAEDTAVYYCARERGSYYDILTGSQDYGMDVWGQGTTVTVSS
VL: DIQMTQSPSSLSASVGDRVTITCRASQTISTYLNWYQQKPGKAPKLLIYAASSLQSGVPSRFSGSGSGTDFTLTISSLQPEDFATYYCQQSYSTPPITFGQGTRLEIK
notes: also called HCAF12C06-26
In assay [1], B9 returned a Kd of 22.9 nM, a koff of 0.000352 s⁻¹, a kon of 15400 M⁻¹ s⁻¹ and a t½ of 0.547 h. Also, in assay [3], the “t½ ratio pH 7.4/pH 5.0” value amounted to 0.7 and the “t½ ratio pH 7.4/pH 6.0” value amounted to 0.8. In assay [4], this molecule returned a Kd of 50.9 nM, a koff of 0.000195 s⁻¹, a kon of 3820 M⁻¹ s⁻¹ and a t½ of 0.99 h. Besides, the binding result in assay [5] is recorded as “no binding”. For the same molecule, the binding result in assay [6] is reported as “no binding”.

B10: H1H17359N (antibody, V domains shown)
VH: EVQLVESGGGLAQPGGSLRLSCAASGFTFSSHEMNWVRQAPGKGLEWVSYISRSGRIINYADSVKGRFTISRDNAKNSLYLQMNSLRAEDTAVYYCARERGSYYDILTGSQDYGMDVWGQGTTVTVSS
VL: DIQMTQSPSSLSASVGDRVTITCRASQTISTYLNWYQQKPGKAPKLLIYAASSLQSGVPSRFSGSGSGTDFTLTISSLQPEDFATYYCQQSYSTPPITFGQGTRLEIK
As for B10, the binding result in assay [2] was “no binding (tested: below 0.10 nm at 300 nM)”.
